This is an account of results in publication doi:10.1101/2023.08.25.554789.

For experiment [1], the target named is apCC-Hex-LLIA. As to the kind of experiment: AUC.
Experiment [2] has as its target apCC-Hex-LLIA. Nature of the experiment: crystal structure.

A word on the stoichiometry N: it is the number of molecules, sites or subunits per partner or assembly. As for apCC-Hex-LLIA (peptide), the stoichiometry N in experiment [1] and in experiment [2] was 6 each time.
